Here are results for 1 substance from patent US20250179183A1.

Several values for one entry are separate records, joined by “and”; a condition that tells them apart may be missing. Equal entries are not always repeated.

Assay [1] concerns the target SARS-CoV-2 spike South African Δ3 B.1.351 variant (pseudovirus RVP-724) (SARS-CoV-2) (UniProt P0DTC2). Description: cell-based or functional assay.
Assay [2] concerns the target SARS-CoV-2 spike N439K variant (pseudovirus RVP-703) (SARS-CoV-2) (UniProt P0DTC2). Description: cell-based or functional assay.

Turning to REGN10987 (antibody), the EC50 (pM) Neutralization, pseudovirus in assay [1] is 2.48 pM and 2.37 pM; in assay [2], 2260 pM and 2220 pM.
